These results are taken from US20140271469A1 (Stanford University, published 2014).

The target of experiment [1] is T1, Recombinant human integrin αvβ6 (human, UniProt P06756 31-992; P18564 22-707).
T1 construct: Bought soluble heterodimer; also called alpha-v-beta-6; avb6
Description: flow cytometry, peptide displayed on yeast, soluble integrin αvβ6.

Experiment [2] deals with Recombinant human integrin αvβ3 (human, UniProt P06756 31-992; P05106 27-718). Description: flow cytometry, peptide displayed on yeast, soluble integrin (FIG. 1C). Background: A flow cytometer gives signals particle by particle.
Experiment [3] addresses Recombinant human integrin α5β1 (human, UniProt P08648 42-995; P05556 21-728). Described as above.
Experiment [4] has as its target Recombinant human integrin αvβ5 (human, UniProt P06756 31-992; P18084 24-719). The description is as above.
Experiment [5] deals with T1, Recombinant human integrin αvβ6. As to the kind of experiment: binding of scrambled peptide to soluble integrin αvβ6, normalised to R02 at 1 nM (FIG. 3A).
Experiment [6] has as its target T2, Native integrin αvβ6 on cells (BxPC-3, A431) (human, UniProt P06756 31-1048; P18564 22-788).
T2 construct: whole, on cells; The cells also carry other integrins; also called integrin αvβ6 expressing cells; target expressing cells
As to the kind of experiment: cell uptake assay with radiolabeled peptide (FIG. 5).

Experiment [7] addresses T3, Recombinant human integrin αvβ6 (human), P06756.
T3 chain 1: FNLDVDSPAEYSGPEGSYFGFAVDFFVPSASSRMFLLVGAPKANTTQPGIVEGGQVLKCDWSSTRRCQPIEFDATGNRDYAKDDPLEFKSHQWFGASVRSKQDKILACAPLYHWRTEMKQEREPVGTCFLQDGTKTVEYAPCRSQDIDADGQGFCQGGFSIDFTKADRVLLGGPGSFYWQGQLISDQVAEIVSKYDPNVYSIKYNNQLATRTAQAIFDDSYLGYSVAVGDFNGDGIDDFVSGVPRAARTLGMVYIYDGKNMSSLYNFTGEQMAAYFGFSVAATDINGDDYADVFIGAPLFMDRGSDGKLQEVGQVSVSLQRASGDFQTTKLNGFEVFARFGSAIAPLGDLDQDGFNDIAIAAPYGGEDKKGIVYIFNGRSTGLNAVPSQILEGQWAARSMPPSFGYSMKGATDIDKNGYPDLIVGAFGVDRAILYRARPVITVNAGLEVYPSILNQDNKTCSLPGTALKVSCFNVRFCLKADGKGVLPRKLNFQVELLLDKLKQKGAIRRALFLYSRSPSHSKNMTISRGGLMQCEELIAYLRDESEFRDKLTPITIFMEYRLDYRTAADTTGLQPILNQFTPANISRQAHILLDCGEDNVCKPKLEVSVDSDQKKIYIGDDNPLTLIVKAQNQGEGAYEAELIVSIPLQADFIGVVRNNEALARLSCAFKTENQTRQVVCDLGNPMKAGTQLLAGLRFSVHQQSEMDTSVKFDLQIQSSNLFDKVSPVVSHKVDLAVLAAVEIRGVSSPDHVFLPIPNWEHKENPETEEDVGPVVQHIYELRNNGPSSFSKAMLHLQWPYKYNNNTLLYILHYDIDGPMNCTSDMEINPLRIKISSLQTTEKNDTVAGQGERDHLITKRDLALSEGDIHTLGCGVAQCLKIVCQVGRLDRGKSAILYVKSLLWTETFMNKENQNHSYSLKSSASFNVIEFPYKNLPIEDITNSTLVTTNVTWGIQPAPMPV
T3 chain 2: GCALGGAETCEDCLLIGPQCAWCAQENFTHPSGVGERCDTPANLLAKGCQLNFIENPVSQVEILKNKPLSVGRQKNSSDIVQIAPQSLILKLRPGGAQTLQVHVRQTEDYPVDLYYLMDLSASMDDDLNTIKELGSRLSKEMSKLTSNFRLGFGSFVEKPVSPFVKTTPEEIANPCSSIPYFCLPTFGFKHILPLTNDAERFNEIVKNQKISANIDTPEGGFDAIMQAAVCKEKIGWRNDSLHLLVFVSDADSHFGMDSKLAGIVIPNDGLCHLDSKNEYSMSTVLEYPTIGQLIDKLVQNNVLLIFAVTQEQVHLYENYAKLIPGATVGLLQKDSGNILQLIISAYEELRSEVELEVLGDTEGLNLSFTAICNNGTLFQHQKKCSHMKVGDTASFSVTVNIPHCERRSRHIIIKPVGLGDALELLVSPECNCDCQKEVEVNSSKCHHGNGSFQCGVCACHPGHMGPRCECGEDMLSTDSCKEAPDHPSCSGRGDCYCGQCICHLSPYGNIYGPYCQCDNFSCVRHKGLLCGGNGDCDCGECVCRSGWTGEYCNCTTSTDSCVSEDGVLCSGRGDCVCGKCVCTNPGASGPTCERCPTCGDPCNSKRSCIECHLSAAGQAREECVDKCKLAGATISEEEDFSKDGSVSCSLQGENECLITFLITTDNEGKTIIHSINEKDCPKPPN
As to the kind of experiment: cell sorting study, peptide expressed on the surface of yeast.

For experiment [8], the target named is T1, Recombinant human integrin αvβ6. The description is as above.
Experiment [9] shares this target. Description: flow cytometry of yeast-displayed grafts with integrin αvβ6 (data not shown).
Experiment [10] has the same target. Description: flow cytometry, 10 nM integrin αvβ6, relative to R02.

Changes are numbered by the printed parent chain. Ends that are not written are not given here. * marks the point of attachment. DOTA = O=C(O)CN1CCN(CC(=O)O)CCN(CC(=O)*)CCN(CC(=O)O)CC1

As a reminder, the Kd is the constant that tells how readily two partners part at equilibrium.

Sequence of Recombinant human integrin αvβ5 (P18084 24-719, one chain of several): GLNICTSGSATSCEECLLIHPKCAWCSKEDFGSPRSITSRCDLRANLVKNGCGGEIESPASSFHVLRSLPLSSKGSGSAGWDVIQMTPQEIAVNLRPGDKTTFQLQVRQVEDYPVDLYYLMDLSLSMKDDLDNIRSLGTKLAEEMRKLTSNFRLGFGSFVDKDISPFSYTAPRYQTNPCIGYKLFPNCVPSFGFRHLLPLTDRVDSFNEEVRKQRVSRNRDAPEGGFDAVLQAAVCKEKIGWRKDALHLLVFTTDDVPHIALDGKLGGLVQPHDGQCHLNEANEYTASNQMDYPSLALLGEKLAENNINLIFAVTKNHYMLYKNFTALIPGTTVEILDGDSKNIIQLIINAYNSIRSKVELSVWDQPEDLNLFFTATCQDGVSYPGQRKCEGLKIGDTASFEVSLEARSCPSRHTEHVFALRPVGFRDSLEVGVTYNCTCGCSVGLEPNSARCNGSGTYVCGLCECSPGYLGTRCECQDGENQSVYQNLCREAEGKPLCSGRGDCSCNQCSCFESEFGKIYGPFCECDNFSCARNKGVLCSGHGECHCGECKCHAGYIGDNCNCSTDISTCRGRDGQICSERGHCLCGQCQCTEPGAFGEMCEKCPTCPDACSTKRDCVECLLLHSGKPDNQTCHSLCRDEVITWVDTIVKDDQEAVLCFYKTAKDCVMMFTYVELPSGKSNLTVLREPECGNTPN
Sequence of Recombinant human integrin α5β1 (P08648 42-995, chain 1 of 2): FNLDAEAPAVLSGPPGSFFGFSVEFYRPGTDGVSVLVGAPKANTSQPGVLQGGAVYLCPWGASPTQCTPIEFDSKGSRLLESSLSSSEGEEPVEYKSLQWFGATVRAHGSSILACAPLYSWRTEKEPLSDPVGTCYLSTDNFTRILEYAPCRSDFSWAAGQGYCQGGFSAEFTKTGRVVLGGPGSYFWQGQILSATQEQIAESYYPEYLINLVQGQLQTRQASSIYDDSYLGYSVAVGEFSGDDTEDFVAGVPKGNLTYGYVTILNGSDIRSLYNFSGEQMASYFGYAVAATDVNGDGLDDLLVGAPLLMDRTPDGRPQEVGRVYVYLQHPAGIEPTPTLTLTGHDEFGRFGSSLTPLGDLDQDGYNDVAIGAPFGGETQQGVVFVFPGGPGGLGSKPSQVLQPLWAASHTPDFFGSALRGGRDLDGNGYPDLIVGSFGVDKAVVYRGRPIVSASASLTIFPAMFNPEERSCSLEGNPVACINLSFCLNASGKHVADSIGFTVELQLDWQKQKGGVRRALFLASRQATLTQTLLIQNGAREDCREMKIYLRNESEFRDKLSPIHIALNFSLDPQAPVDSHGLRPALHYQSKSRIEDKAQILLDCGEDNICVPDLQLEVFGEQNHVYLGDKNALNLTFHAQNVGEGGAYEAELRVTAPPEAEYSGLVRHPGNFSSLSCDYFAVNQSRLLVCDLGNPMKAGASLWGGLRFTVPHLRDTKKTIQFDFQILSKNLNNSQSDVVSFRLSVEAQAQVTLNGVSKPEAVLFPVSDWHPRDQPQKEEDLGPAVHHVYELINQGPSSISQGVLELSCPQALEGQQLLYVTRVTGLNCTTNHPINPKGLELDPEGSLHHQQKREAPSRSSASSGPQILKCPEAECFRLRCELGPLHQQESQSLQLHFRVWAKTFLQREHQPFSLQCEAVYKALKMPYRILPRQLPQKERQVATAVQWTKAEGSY
Sequence of Recombinant human integrin α5β1 (P05556 21-728, chain 2 of 2): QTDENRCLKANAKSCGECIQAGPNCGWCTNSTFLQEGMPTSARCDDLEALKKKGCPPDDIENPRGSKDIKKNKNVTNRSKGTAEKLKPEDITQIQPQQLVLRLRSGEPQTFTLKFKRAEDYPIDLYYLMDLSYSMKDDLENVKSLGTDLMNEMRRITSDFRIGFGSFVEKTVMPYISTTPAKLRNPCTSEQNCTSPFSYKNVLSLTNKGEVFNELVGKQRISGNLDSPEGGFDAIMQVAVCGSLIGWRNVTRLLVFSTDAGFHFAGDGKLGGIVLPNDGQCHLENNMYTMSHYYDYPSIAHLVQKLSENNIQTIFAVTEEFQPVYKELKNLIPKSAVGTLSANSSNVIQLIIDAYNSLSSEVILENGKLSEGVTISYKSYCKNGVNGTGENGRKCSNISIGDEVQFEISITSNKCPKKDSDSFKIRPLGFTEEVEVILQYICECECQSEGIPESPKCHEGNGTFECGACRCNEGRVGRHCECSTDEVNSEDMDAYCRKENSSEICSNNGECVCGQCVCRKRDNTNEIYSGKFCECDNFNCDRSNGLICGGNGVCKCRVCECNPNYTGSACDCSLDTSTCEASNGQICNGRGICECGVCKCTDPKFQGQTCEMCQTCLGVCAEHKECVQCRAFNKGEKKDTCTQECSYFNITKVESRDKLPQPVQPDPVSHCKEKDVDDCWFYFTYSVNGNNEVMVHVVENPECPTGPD
Sequence of Recombinant human integrin αvβ3 (P05106 27-718, one chain of several): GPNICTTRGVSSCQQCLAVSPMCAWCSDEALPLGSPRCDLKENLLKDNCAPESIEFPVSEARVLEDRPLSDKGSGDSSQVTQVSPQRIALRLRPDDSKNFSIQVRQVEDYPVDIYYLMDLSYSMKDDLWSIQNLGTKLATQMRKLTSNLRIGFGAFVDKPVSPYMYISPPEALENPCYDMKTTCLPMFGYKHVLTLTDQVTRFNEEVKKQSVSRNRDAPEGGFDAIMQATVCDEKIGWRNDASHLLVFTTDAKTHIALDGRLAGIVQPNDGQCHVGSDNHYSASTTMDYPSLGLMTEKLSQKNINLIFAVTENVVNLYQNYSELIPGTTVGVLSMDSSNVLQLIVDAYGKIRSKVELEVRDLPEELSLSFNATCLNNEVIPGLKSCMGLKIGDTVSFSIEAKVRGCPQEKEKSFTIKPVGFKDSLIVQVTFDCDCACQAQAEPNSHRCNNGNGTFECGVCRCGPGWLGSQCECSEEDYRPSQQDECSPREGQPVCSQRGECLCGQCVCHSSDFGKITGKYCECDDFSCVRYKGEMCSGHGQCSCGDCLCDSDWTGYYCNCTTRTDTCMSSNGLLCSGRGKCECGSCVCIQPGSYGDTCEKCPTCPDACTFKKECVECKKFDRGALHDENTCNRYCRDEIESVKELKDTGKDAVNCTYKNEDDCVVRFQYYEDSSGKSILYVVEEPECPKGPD

B1: S02 (peptide)
peptide: GCRSLARTDLDHLRDRCSSDSDCLAECICLENGFCG
modifications: disulfide (positions not given here); not fully specified (bridges); also: three disulfide bonds, places not given here
notes: also called activity '2' in the S0 scaffold
Turning to B1, the Kd in [1] worked out at 6 nM. For the same molecule, the binding result in experiment [2], in [3] and in experiment [4] was “no binding” each time.

B2: S03 (peptide)
peptide: B1 peptide with S4L, L5V, A6F, D15G
notes: It says only that activity '3' was tested in the S0 scaffold; The chain is composed here from the loop of R03 and the scaffold of S02, and the residue limits were counted by me; also called activity '3' in the S0 scaffold
With B2, the Kd in experiment [1] was found to be 3.1 nM. The binding result in experiment [2], in experiment [3] and in [4] was “no binding” in each case.

B3: scS02 (peptide)
peptide: B1 peptide with T8D, D9T
notes: also called scrambled S02
As to B3, the binding result in [5] was “no binding (tested: 100 nM and 300 nM integrin αvβ6)”.

B4: 64Cu-DOTA-R02 (peptide)
peptide: {DOTA}-GCRSLARTDLDHLRGRCRRDSDCPGACICRGNGYCG
modifications: cysteine pairing not given here; also: 64Cu complex of DOTA
notes: also called 64Cu-DOTA-labeled R02
As to B4, in experiment [6], the binding result is reported as “binds”.

B5: S01 (peptide)
peptide: GCILNMRTDLGTLLFRCSSDSDCLAECICLENGFCG
notes: It says only that activity '1' was tested in the S0 scaffold; also called activity '1' in the S0 scaffold
As to B5, in [1], the Kd turned out to be 6.5 nM. Further, the binding result in experiment [2], in experiment [3] and in experiment [4] was “no binding” in each case.

B6: MΔR (peptide)
peptide: GCILNRRTDLGTLLFRCRRDSDCPGACICRGNGYCG
modifications: not checked
Take B6: in experiment [7], the dissociation constant (Kd) was determined as 0.95 nM.

B7: R01 (peptide)
peptide: B6 peptide with R6M
notes: also called wild-type R01; wt
Regarding B7, the Kd in experiment [1] is 3.6 nM; in [8], 1.07 nM. Also, the binding result in [3] is on record as “no binding”.

B8: MΔG (peptide)
peptide: B6 peptide with R6G
modifications: not checked
As to B8, the Kd in [7] was 1.24 nM.

B9: MΔW (peptide)
peptide: B6 peptide with R6W
notes: also called R01 tryptophan substitution
For the molecule B9, the Kd in experiment [8] turned out to be 1.69 nM.

B10: scR01 (peptide)
peptide: B6 peptide with R6M, T8D, D9T
notes: also called scrambled R01
Take B10: the binding result in experiment [5] was “no binding (tested: 100 nM and 300 nM integrin αvβ6)”.

B11: G2 (peptide)
peptide: GCGHPRTDLASLAKRCRRDSDCPGACICRGNGYCG
notes: also called graft 2
As to B11, in experiment [9], the binding result is “binds”.

B12: R02 (peptide)
peptide: GCRSLARTDLDHLRGRCRRDSDCPGACICRGNGYCG
notes: also called activity '2' in the R0 scaffold
Regarding B12, the equilibrium dissociation constant (Kd) in experiment [1] was 3.2 nM. Besides, the binding result in experiment [2], in [3] and in [4] was “no binding” in each case.

B13: R32 (peptide)
peptide: B12 peptide with S21R, P24R
notes: also called activity '2' in arginine-rich scaffold R3
As to B13, in experiment [10], the binding result is listed as “binds”.

B14: R03 (peptide)
peptide: B12 peptide with S4L, L5V, A6F
notes: also called activity '3' in the R0 scaffold
B14: the Kd in experiment [1] was 3.6 nM. In addition, the binding result in experiment [2], in experiment [3] and in experiment [4] was “no binding” throughout.

B15: E42 (peptide)
peptide: B12 peptide with R18E, R19E, R30E
notes: also called activity '2' in glutamic acid-rich scaffold E4
For the molecule B15, the binding result in experiment [10] was “binds”.

B16: R22 (peptide)
peptide: B12 peptide with P24R
notes: also called activity '2' in arginine-rich scaffold R2
With B16, the binding result in experiment [10] is “binds”.

B17: R12 (peptide)
peptide: B12 peptide with S21R
notes: also called activity '2' in arginine-rich scaffold R1
Turning to B17, the binding result in experiment [10] is “binds”.

B18: E12 (peptide)
peptide: B12 peptide with R30E
notes: also called activity '2' in glutamic acid-rich scaffold E1
Regarding B18, the binding result in experiment [10] was “binds”.

B19: G3 (peptide)
peptide: GCGGHPRTDLASLAKRCRRDSDCPGACICRGNGYCG
notes: also called graft 3
As for B19, the binding result in [9] is given as “binds”.
